Target: TGFBR II (UniProt P37173)
Experiment: cell-based or functional assay

Chain of TGFBR II (P37173 23-567): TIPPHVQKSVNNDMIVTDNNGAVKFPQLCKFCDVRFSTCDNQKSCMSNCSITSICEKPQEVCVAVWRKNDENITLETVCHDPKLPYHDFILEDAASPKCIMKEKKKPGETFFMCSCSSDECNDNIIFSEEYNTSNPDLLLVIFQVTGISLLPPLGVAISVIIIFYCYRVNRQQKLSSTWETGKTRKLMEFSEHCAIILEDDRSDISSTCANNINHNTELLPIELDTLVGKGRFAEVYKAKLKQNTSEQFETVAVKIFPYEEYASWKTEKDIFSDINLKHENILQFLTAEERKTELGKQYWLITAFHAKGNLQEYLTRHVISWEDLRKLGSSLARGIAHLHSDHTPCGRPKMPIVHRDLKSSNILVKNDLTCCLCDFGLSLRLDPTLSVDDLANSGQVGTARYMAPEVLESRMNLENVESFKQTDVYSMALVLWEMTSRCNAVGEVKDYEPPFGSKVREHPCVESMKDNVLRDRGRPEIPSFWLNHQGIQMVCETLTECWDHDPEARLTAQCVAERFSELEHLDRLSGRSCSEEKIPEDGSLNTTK

decrease in release of IL-2 and IFN-γ by P4-CAR-T cells with 5 ng/ml TGFβ1: 50%
Substance: TGFβ1 (from UniProt P01137 279-390) (ligand)
